Source: US20080146500A1, “Selective Vpac2 Receptor Peptide Agonists” (priority 2004, published 2008)
Where two headings read alike, the source gives them in different places. Ends that are not written are not given here.

Experiments:
rat VPAC2 receptor = molecular target: T1, rat VPAC2 receptor (Rattus norvegicus, UniProt P35000); assay: Rat VPAC2 in vitro potency (cAMP generation, DiscoveRx) in transiently transfected CHO-PO cells; format: cell-based; conditions: CHO-PO cells transiently transfected with rat VPAC2; read-out: rVPAC2 in vitro potency (cAMP generation) EC50
T1 construct: expressed in transfected cells; host or cells: CHO-PO cells, transient
T1 sequence (P35000 23-437): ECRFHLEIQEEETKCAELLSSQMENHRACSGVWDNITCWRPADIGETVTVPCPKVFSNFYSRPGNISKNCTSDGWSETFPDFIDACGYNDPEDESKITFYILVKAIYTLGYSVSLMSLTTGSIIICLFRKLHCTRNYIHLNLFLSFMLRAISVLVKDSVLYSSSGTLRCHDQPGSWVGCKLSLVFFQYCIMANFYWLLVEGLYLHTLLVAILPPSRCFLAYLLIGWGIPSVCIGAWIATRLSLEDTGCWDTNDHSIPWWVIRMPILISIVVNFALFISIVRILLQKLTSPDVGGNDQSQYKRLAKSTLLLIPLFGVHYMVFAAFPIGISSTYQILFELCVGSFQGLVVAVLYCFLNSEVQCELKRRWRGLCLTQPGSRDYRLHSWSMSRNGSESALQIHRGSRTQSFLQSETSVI
Experimental: Rat receptor selectivity is estimated by comparing functional potency (cAMP generation) in CHO-PO cells transiently expressing rat VPAC1 or rat VPAC2 receptors. CHO-PO cells transiently expressing rat VPAC1 or VPAC2, are seeded with 10,000 cells/well three days before the assay. The cells are kept in 200 μL culture medium. […] The stimuli are present for 30 minutes. The assay buffer is then gently removed.

[1] = Rat serum stability at 37 C, remaining active peptide estimated by EC50,4C/EC50,37C in CHO-VPAC2 cAMP assay; conditions: for Estimated serum stability (%): after 24 h in rat serum at 37 C
Experimental: The rat serum is stored at 4° C. until use and is used within two weeks.
On Day 0, two 100 μL aliquots of 10 μM peptide in rat serum are prepared by adding 10 μL peptide stock to 90 μL rat serum for each aliquot. 250 kIU aprotinin/mL is added to one of these aliquots. The aliquot is stored with aprotinin at 4° C. The aliquot is stored without aprotinin at 37° C. The aliquots are incubated for […].
On Day 1, after incubation of the aliquots prepared on day 0 for 24 hours, an incubation buffer containing PBS+1.3 mM CaCl2, 1.2 mM MgCl2, 2 mM glucose, and 0.25 mM IBMX is prepared. A plate with 11 serial 5× dilutions of peptide for the 4° C. and 37° C. aliquot is prepared for each peptide studied. […] The plate(s) are washed with cells twice in incubation buffer. The plates are allowed to hold 50 μL incubation media per well for 15 minutes. 50 μL solution per well is transferred to the cells from the plate prepared with 11 serial 5× dilutions of peptide for the 4° C. and 37° C. aliquot for each peptide studied, using the maximal concentrations that are indicated by the primary screen, in duplicate. This step dilutes the peptide concentration by a factor of two. The cells are incubated at room temperature for 30 minutes. The supernatant is removed. 40 μL/well of the DiscoveRx antibody/extraction buffer is added. The cells are incubated on the shaker (300 rpm) for 1 hour. Normal procedure with the DiscoveRx kit is followed. cAMP standards are included in column 12. EC50 values are determined from the cAMP assay data.

human PAC1 = molecular target: T2, human PAC1 (Homo sapiens, UniProt P41586); assay: Filter binding assay, membranes from cells transiently transfected with human PAC1, 125I-labeled PACAP-27 tracer; conditions: read-out: Human receptor binding (IC50; nM) PAC1
T2 construct: expressed in transfected cells
T2 sequence (P41586 21-468): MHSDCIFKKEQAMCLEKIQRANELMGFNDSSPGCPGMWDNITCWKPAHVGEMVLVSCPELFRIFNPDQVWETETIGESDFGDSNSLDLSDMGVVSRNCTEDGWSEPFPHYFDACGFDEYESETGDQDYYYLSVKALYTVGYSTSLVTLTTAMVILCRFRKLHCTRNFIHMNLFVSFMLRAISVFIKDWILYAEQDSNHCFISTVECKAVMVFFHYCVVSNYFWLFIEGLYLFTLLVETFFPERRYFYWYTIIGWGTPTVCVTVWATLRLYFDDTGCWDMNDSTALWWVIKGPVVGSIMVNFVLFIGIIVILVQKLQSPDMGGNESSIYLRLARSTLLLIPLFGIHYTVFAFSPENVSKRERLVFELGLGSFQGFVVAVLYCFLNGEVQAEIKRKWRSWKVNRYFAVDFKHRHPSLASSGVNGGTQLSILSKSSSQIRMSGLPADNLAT
Experimental: For this assay, the solutions and equipment include:
Presoak solution: 0.5% Polyethyleneamine in Aqua dest.
Buffer for flushing filter plates: 25 mM HEPES pH 7.4
Blocking buffer: 25 mM HEPES pH 7.4; 0.2% protease free BSA
Assay buffer: 25 mM HEPES pH 7.4; 0.5% protease free BSA
Dilution and assay plate: PS-Microplate, U form
Filtration Plate Multiscreen FB Opaque Plate; […] Type B Glasfiber filter
In order to prepare the filter plates, the presoak solution is aspirated by vacuum filtration. The plates are flushed twice with 200 μL flush buffer. 200 μL blocking buffer is added to the filter plate. The filter plate is then incubated with 200 μL presoak solution for 1 hour at room temperature.
The assay plate is filled with […] (2.5 μg) suspended in assay buffer, 25 μL compound (agonist) in assay buffer, and 25 μL tracer (about 40000 cpm) in assay buffer. The filled plate is incubated for 1 hour with shaking.
The transfer from assay plate to filter plate is conducted. The blocking buffer is aspirated by vacuum filtration and washed two times with flush buffer. 90 μL is transferred from the assay plate to the filter plate. The 90 μL transferred from assay plate is aspirated and washed three times with 200 μL flush buffer. The plastic support is removed. It is dried for 1 hour at 60° C. 30 μL Microscint is added. The count is performed.
Values reported are single results or the mean of two or more independent runs.

[2] = values >100% may represent release of intact peptide from the PEG conjugate

Substance | EC50 (rat VPAC2 receptor) [nM] | Estimated serum stability (%) [1, 2] [%] | IC50 (human PAC1) [nM] | Estimated 72 h stability (%) ([1]; after 72 h in rat serum at 37 C, values >100% may represent release of intact peptide from the PEG conjugate) | Estimated 72 h stability (%) [1] [%]
C6-HSDAVFTEQY(OMe)TOrnLRAibQVAK(CO(CH2)2SPEG40K)AibOrnYLQSIOrnOrnGGPSSGAPPPS-NH2 (HSDAVFTEQYTXLRXQVAXXXYLQSIXXGGPSSGAPPPS; non-natural residues) [Agonist P432] | 16.7 | 102.1 | > 25000 | – | –
C6-HDAVFTEQY(OMe)TOrnLRAibQVAAAibOrnYLQSIOrnOrnGGPSSGAPPPC(PEG60K)-NH2 [Agonist P404] | 24.4 | 320.7 | > 25000 | – | –
C6-HSDAVFTDNYTOrnLRAibQVAAAibKYLQC(PEG40K)IOrnNOrnGGPSSGAPPPS (HSDAVFTDNYTXLRXQVAAXKYLQCIXNXGGPSSGAPPPS; non-natural residues) [Agonist P373] | 72.2 | 73.6 | > 25000 | 47.1 | –
P137: PEGylated material obtained from P120 and methoxy-PEG2-MAL-40K (HSDAVFTDNYTRLRKQVAAKKYLQSIKNKRYGGPSSGAPPPC; also: PEGylated with methoxy-PEG2-MAL-40K, site not given here) [Agonist P137] | 8 | – | > 25000 | – | 52.8
